Laboratory results: US12318427

Legend:
Assay in all cases: cell_activity
[1] = test system: ZFP-TF SBS 57930 (artificial); conditions: AAV6 SYN1, human iPSC-derived neurons, 32 days, ELISA
[2] = test system: ZFP-TF SBS 65918 R(-5)Q in F1 and F5 (Qm5 phosphate contact mutants) (artificial); conditions: AAV6 SYN1, human iPSC-derived neurons, 32 days, ELISA; combined with 57890 >10-fold
[3] = test system: ZFP-TF SBS 57890 (artificial); conditions: AAV9 hSYN1 in humanized tau mice, 6 wk; mouse tau ~81%; human iPSC neurons tau protein reduced 2-fold (p208)

“CGGCAGAAGGTGGGCGGTGGCGGCGGCG (double strand) [MAPT target site of 57930/65918]” was tested, and the activity (fold tau protein reduction) [1] was > 5 and the activity (fold tau protein reduction) [2] was > 2.

For “TGGTGCTGGAGCTGGTGGGTGGCGGAGA (double strand) [MAPT target site of 57890]”, the activity (% human tau mRNA repression) [3] was 60.
